This is an account of results in paper PMC11417995 (2024).

The target in this assay is ubiquitin (Homo sapiens, UniProt P0CG47). Kind of assay: PPI-CONA.

B1: CDC34A (protein)
chain: MARPLVPSSQKALLLELKGLQEEPVEGFRVTLVDEGDLYNWEVAIFGPPNTYYEGGYFKARLKFPIDYPYSPPAFRFLTKMWHPNIYETGDVCISILHPPVDDPQSGELPSERWNPTQNVRTILLSVISLLNEPNTFSPANVDASVMYRKWKESKGKDREYTDIIRKQVLGTKVDAERDGVKVPTTLAEYCVKTKAPAPDEGSDLFYDDYYEDGEVEEEADSCFGDDEDDSGTEES
modifications: CC0651
B1 registered a Kd of 12.2 µM.
